This is an account of results in US20130005646A1 (Novo Nordisk, published 2013).

T1: human amylin 3(a) receptor (human calcitonin receptor + RAMP-3) (human, UniProt P30988 25-474; O60896 24-148)
T1 sequence (looked up) 1: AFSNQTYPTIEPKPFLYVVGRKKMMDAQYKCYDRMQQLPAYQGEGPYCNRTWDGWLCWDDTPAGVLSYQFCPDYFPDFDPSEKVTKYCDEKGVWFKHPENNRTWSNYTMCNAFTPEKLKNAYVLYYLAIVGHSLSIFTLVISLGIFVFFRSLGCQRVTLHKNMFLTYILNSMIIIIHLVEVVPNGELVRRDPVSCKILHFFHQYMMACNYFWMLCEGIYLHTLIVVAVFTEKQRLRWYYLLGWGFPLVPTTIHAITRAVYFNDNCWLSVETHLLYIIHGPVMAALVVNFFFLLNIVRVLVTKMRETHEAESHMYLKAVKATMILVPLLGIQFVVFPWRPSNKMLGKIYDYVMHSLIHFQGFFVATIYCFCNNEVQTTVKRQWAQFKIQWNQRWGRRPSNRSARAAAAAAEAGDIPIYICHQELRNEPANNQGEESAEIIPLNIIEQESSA
T1 sequence (looked up) 2: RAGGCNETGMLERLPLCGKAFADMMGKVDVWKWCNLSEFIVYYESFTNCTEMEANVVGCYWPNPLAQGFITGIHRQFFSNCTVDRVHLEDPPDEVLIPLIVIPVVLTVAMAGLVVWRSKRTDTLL

T2: human calcitonin (a) receptor (human, UniProt P30988 25-474)
T2 sequence (looked up): T1 sequence (looked up) 1

B1: N-alpha-[(S)-4-Carboxy-4-(19-carboxynonadecanoylamino)butyryl]-Glu-Glu-[Arg1,Glu14,Arg17,Pro37]-pramlintide (peptide)
peptide: {C20 diacid-γGlu}-EERCNTATCATQRLAEFLRHSSNNFGPILPPTNVGSNTP-NH2
modifications: disulfide 4-9
SMILES: CC[C@H](C)[C@H](NC(=O)[C@@H]1CCCN1C(=O)CNC(=O)[C@H](Cc1ccccc1)NC(=O)[C@H](CC(N)=O)NC(=O)[C@H](CC(N)=O)NC(=O)[C@H](CO)NC(=O)[C@H](CO)NC(=O)[C@H](Cc1c[nH]cn1)NC(=O)[C@H](CCCNC(=N)N)NC(=O)[C@H](CC(C)C)NC(=O)[C@H](Cc1ccccc1)NC(=O)[C@H](CCC(=O)O)NC(=O)[C@H](C)NC(=O)[C@H](CC(C)C)NC(=O)[C@H](CCCNC(=N)N)NC(=O)[C@H](CCC(N)=O)NC(=O)[C@@H](NC(=O)[C@H](C)NC(=O)[C@@H]1CSSC[C@H](NC(=O)[C@H](CCCNC(=N)N)NC(=O)[C@H](CCC(=O)O)NC(=O)[C@H](CCC(=O)O)NC(=O)CC[C@H](NC(=O)CCCCCCCCCCCCCCCCCCC(=O)O)C(=O)O)C(=O)N[C@@H](CC(N)=O)C(=O)N[C@@H]([C@@H](C)O)C(=O)N[C@@H](C)C(=O)N[C@@H]([C@@H](C)O)C(=O)N1)[C@@H](C)O)C(=O)N[C@@H](CC(C)C)C(=O)N1CCC[C@H]1C(=O)N1CCC[C@H]1C(=O)N[C@H](C(=O)N[C@@H](CC(N)=O)C(=O)N[C@H](C(=O)NCC(=O)N[C@@H](CO)C(=O)N[C@@H](CC(N)=O)C(=O)N[C@H](C(=O)N1CCC[C@H]1C(N)=O)[C@@H](C)O)C(C)C)[C@@H](C)O
B2: N-alpha-[(S)-4-Carboxy-4-(19-carboxynonadecanoylamino)butyryl]-Glu-Arg-[Glu1,Glu14,Arg17,Gln21,Pro37]-pramlintide (peptide)
peptide: {C20 diacid-γGlu}-ERECNTATCATQRLAEFLRHSSQNFGPILPPTNVGSNTP-NH2
modifications: disulfide 4-9
SMILES: CC[C@H](C)[C@H](NC(=O)[C@@H]1CCCN1C(=O)CNC(=O)[C@H](Cc1ccccc1)NC(=O)[C@H](CC(N)=O)NC(=O)[C@H](CCC(N)=O)NC(=O)[C@H](CO)NC(=O)[C@H](CO)NC(=O)[C@H](Cc1c[nH]cn1)NC(=O)[C@H](CCCNC(=N)N)NC(=O)[C@H](CC(C)C)NC(=O)[C@H](Cc1ccccc1)NC(=O)[C@H](CCC(=O)O)NC(=O)[C@H](C)NC(=O)[C@H](CC(C)C)NC(=O)[C@H](CCCNC(=N)N)NC(=O)[C@H](CCC(N)=O)NC(=O)[C@@H](NC(=O)[C@H](C)NC(=O)[C@@H]1CSSC[C@H](NC(=O)[C@H](CCC(=O)O)NC(=O)[C@H](CCCNC(=N)N)NC(=O)[C@H](CCC(=O)O)NC(=O)CC[C@H](NC(=O)CCCCCCCCCCCCCCCCCCC(=O)O)C(=O)O)C(=O)N[C@@H](CC(N)=O)C(=O)N[C@@H]([C@@H](C)O)C(=O)N[C@@H](C)C(=O)N[C@@H]([C@@H](C)O)C(=O)N1)[C@@H](C)O)C(=O)N[C@@H](CC(C)C)C(=O)N1CCC[C@H]1C(=O)N1CCC[C@H]1C(=O)N[C@H](C(=O)N[C@@H](CC(N)=O)C(=O)N[C@H](C(=O)NCC(=O)N[C@@H](CO)C(=O)N[C@@H](CC(N)=O)C(=O)N[C@H](C(=O)N1CCC[C@H]1C(N)=O)[C@@H](C)O)C(C)C)[C@@H](C)O
B3: N-alpha-[(S)-4-Carboxy-4-(19-carboxynonadecanoylamino)butyryl]-Glu-Glu-[Arg1,Glu14,Arg17,Gln21,Gln35,Pro37]-pramlintide (peptide)
peptide: {C20 diacid-γGlu}-EERCNTATCATQRLAEFLRHSSQNFGPILPPTNVGSQTP-NH2
modifications: disulfide 4-9
SMILES: CC[C@H](C)[C@H](NC(=O)[C@@H]1CCCN1C(=O)CNC(=O)[C@H](Cc1ccccc1)NC(=O)[C@H](CC(N)=O)NC(=O)[C@H](CCC(N)=O)NC(=O)[C@H](CO)NC(=O)[C@H](CO)NC(=O)[C@H](Cc1c[nH]cn1)NC(=O)[C@H](CCCNC(=N)N)NC(=O)[C@H](CC(C)C)NC(=O)[C@H](Cc1ccccc1)NC(=O)[C@H](CCC(=O)O)NC(=O)[C@H](C)NC(=O)[C@H](CC(C)C)NC(=O)[C@H](CCCNC(=N)N)NC(=O)[C@H](CCC(N)=O)NC(=O)[C@@H](NC(=O)[C@H](C)NC(=O)[C@@H]1CSSC[C@H](NC(=O)[C@H](CCCNC(=N)N)NC(=O)[C@H](CCC(=O)O)NC(=O)[C@H](CCC(=O)O)NC(=O)CC[C@H](NC(=O)CCCCCCCCCCCCCCCCCCC(=O)O)C(=O)O)C(=O)N[C@@H](CC(N)=O)C(=O)N[C@@H]([C@@H](C)O)C(=O)N[C@@H](C)C(=O)N[C@@H]([C@@H](C)O)C(=O)N1)[C@@H](C)O)C(=O)N[C@@H](CC(C)C)C(=O)N1CCC[C@H]1C(=O)N1CCC[C@H]1C(=O)N[C@H](C(=O)N[C@@H](CC(N)=O)C(=O)N[C@H](C(=O)NCC(=O)N[C@@H](CO)C(=O)N[C@@H](CCC(N)=O)C(=O)N[C@H](C(=O)N1CCC[C@H]1C(N)=O)[C@@H](C)O)C(C)C)[C@@H](C)O
B4: N-alpha-[(S)-4-Carboxy-4-(19-carboxynonadecanoylamino)butyryl]-Glu-[Arg1,Glu14,Arg17,Pro37]-pramlintide (peptide)
peptide: {C20 diacid-γGlu}-ERCNTATCATQRLAEFLRHSSNNFGPILPPTNVGSNTP-NH2
modifications: disulfide 3-8
SMILES: CC[C@H](C)[C@H](NC(=O)[C@@H]1CCCN1C(=O)CNC(=O)[C@H](Cc1ccccc1)NC(=O)[C@H](CC(N)=O)NC(=O)[C@H](CC(N)=O)NC(=O)[C@H](CO)NC(=O)[C@H](CO)NC(=O)[C@H](Cc1c[nH]cn1)NC(=O)[C@H](CCCNC(=N)N)NC(=O)[C@H](CC(C)C)NC(=O)[C@H](Cc1ccccc1)NC(=O)[C@H](CCC(=O)O)NC(=O)[C@H](C)NC(=O)[C@H](CC(C)C)NC(=O)[C@H](CCCNC(=N)N)NC(=O)[C@H](CCC(N)=O)NC(=O)[C@@H](NC(=O)[C@H](C)NC(=O)[C@@H]1CSSC[C@H](NC(=O)[C@H](CCCNC(=N)N)NC(=O)[C@H](CCC(=O)O)NC(=O)CC[C@H](NC(=O)CCCCCCCCCCCCCCCCCCC(=O)O)C(=O)O)C(=O)N[C@@H](CC(N)=O)C(=O)N[C@@H]([C@@H](C)O)C(=O)N[C@@H](C)C(=O)N[C@@H]([C@@H](C)O)C(=O)N1)[C@@H](C)O)C(=O)N[C@@H](CC(C)C)C(=O)N1CCC[C@H]1C(=O)N1CCC[C@H]1C(=O)N[C@H](C(=O)N[C@@H](CC(N)=O)C(=O)N[C@H](C(=O)NCC(=O)N[C@@H](CO)C(=O)N[C@@H](CC(N)=O)C(=O)N[C@H](C(=O)N1CCC[C@H]1C(N)=O)[C@@H](C)O)C(C)C)[C@@H](C)O
B5: N-alpha-[(S)-4-Carboxy-4-(19-carboxynonadecanoylamino)butyryl]-Glu-Glu-[Arg1,Glu14,Arg17,Gln21,Pro37]-pramlintide (peptide)
peptide: {C20 diacid-γGlu}-EERCNTATCATQRLAEFLRHSSQNFGPILPPTNVGSNTP-NH2
modifications: disulfide 4-9
SMILES: CC[C@H](C)[C@H](NC(=O)[C@@H]1CCCN1C(=O)CNC(=O)[C@H](Cc1ccccc1)NC(=O)[C@H](CC(N)=O)NC(=O)[C@H](CCC(N)=O)NC(=O)[C@H](CO)NC(=O)[C@H](CO)NC(=O)[C@H](Cc1c[nH]cn1)NC(=O)[C@H](CCCNC(=N)N)NC(=O)[C@H](CC(C)C)NC(=O)[C@H](Cc1ccccc1)NC(=O)[C@H](CCC(=O)O)NC(=O)[C@H](C)NC(=O)[C@H](CC(C)C)NC(=O)[C@H](CCCNC(=N)N)NC(=O)[C@H](CCC(N)=O)NC(=O)[C@@H](NC(=O)[C@H](C)NC(=O)[C@@H]1CSSC[C@H](NC(=O)[C@H](CCCNC(=N)N)NC(=O)[C@H](CCC(=O)O)NC(=O)[C@H](CCC(=O)O)NC(=O)CC[C@H](NC(=O)CCCCCCCCCCCCCCCCCCC(=O)O)C(=O)O)C(=O)N[C@@H](CC(N)=O)C(=O)N[C@@H]([C@@H](C)O)C(=O)N[C@@H](C)C(=O)N[C@@H]([C@@H](C)O)C(=O)N1)[C@@H](C)O)C(=O)N[C@@H](CC(C)C)C(=O)N1CCC[C@H]1C(=O)N1CCC[C@H]1C(=O)N[C@H](C(=O)N[C@@H](CC(N)=O)C(=O)N[C@H](C(=O)NCC(=O)N[C@@H](CO)C(=O)N[C@@H](CC(N)=O)C(=O)N[C@H](C(=O)N1CCC[C@H]1C(N)=O)[C@@H](C)O)C(C)C)[C@@H](C)O
B6: N-alpha-[(S)-4-Carboxy-4-(19-carboxynonadecanoylamino)butyryl]-[Arg17,Pro37]-pramlintide (peptide)
peptide: {C20 diacid-γGlu}-KCNTATCATQRLANFLRHSSNNFGPILPPTNVGSNTP-NH2
modifications: disulfide 2-7
SMILES: CC[C@H](C)[C@H](NC(=O)[C@@H]1CCCN1C(=O)CNC(=O)[C@H](Cc1ccccc1)NC(=O)[C@H](CC(N)=O)NC(=O)[C@H](CC(N)=O)NC(=O)[C@H](CO)NC(=O)[C@H](CO)NC(=O)[C@H](Cc1c[nH]cn1)NC(=O)[C@H](CCCNC(=N)N)NC(=O)[C@H](CC(C)C)NC(=O)[C@H](Cc1ccccc1)NC(=O)[C@H](CC(N)=O)NC(=O)[C@H](C)NC(=O)[C@H](CC(C)C)NC(=O)[C@H](CCCNC(=N)N)NC(=O)[C@H](CCC(N)=O)NC(=O)[C@@H](NC(=O)[C@H](C)NC(=O)[C@@H]1CSSC[C@H](NC(=O)[C@H](CCCCN)NC(=O)CC[C@H](NC(=O)CCCCCCCCCCCCCCCCCCC(=O)O)C(=O)O)C(=O)N[C@@H](CC(N)=O)C(=O)N[C@@H]([C@@H](C)O)C(=O)N[C@@H](C)C(=O)N[C@@H]([C@@H](C)O)C(=O)N1)[C@@H](C)O)C(=O)N[C@@H](CC(C)C)C(=O)N1CCC[C@H]1C(=O)N1CCC[C@H]1C(=O)N[C@H](C(=O)N[C@@H](CC(N)=O)C(=O)N[C@H](C(=O)NCC(=O)N[C@@H](CO)C(=O)N[C@@H](CC(N)=O)C(=O)N[C@H](C(=O)N1CCC[C@H]1C(N)=O)[C@@H](C)O)C(C)C)[C@@H](C)O

Starred links: 1 amine or outer side, 2 acyl side, 3 side chain; linkers in the order of their positions; H or OH if unused. Positions of bridges follow the written chain, without caps; N, C: chain ends. *: point of attachment. C20 diacid = O=C(O)CCCCCCCCCCCCCCCCCCC(=O)*; γGlu = O=C(O)[C@H](CCC(=O)[*:2])N[*:1]

For one experiment, the target named is T1, human amylin 3(a) receptor (human …). The experiment in a line: cell-based or functional assay.
Regarding B1, the “Amylin receptor human EC50” value was 0.313 nM.
Take B2: the “Amylin receptor human EC50” value stood at 0.232 nM.
B3: the “Amylin receptor human EC50” value was 1.13 nM.
Regarding B4, the “Amylin receptor human EC50” value was 0.066 nM.
Same read-out and setting: in the case of B5 it was 0.465 nM; in that of B6, 0.053 nM.

Another experiment concerns the target T2, human calcitonin (a) receptor. As to the kind of experiment: cell-based or functional assay.
Turning to B1, the “CTa receptor human EC50” value came out at 0.526 nM.
Turning to B2, the “CTa receptor human EC50” value was 1.13 nM.
Take B3: the “CTa receptor human EC50” value was 1.19 nM.
Consider B4, for which the “CTa receptor human EC50” value was found to be 0.168 nM.
On the same count and under the same terms, then B5, with 0.547 nM; and B6, with 0.057 nM.
